Experimental data published in the supplement of paper PMC9112550, “Optimization of the antimicrobial peptide Bac7 by deep mutational scanning” (BMC Biology, 2022).

Test system: Escherichia coli TOP10
Assay: shrunken log2 fold change of peptide-encoding DNA abundance (4.5 h post-induction vs induction); higher = less antimicrobial activity (less host growth inhibition)
Conditions: time post-induction: 4.5 h; library: site-saturation at positions 5, 18, 19, 20
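Further: peptides expressed intracellularly from a pBAD plasmid library in pooled LB shake-flask culture, induced with 0.3% L-arabinose, DNA abundance read by NGS, three biological replicates, DESeq2 with apeglm shrinkage.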

RRIRSRPPRLPRPRPRPCVLPRP
shrunken log2 fold change: -0.247

RRIRSRPPRLPRPRPRPCVYPRP
shrunken log2 fold change: -0.0613

RRIRSRPPRLPRPRPRPCYIPRP
shrunken log2 fold change: -0.582

RRIRSRPPRLPRPRPRPCYWPRP
shrunken log2 fold change: -0.121

RRIRSRPPRLPRPRPRPDAHPRP
shrunken log2 fold change: 0.0464

RRIRSRPPRLPRPRPRPDDSPRP
shrunken log2 fold change: -0.237

RRIRSRPPRLPRPRPRPDDWPRP
shrunken log2 fold change: 0.155

RRIRSRPPRLPRPRPRPDEEPRP
shrunken log2 fold change: 0.895

RRIRSRPPRLPRPRPRPDFDPRP
shrunken log2 fold change: 0.0818

RRIRSRPPRLPRPRPRPDGEPRP
shrunken log2 fold change: 0.0597

RRIRSRPPRLPRPRPRPDGGPRP
shrunken log2 fold change: -0.125

RRIRSRPPRLPRPRPRPDGLPRP
shrunken log2 fold change: 0.0397

RRIRSRPPRLPRPRPRPDIVPRP
shrunken log2 fold change: 0.252

RRIRSRPPRLPRPRPRPDLGPRP
shrunken log2 fold change: 0.0168

RRIRSRPPRLPRPRPRPDLLPRP
shrunken log2 fold change: -0.0424

RRIRSRPPRLPRPRPRPDLNPRP
shrunken log2 fold change: 0.0448

RRIRSRPPRLPRPRPRPDMRPRP
shrunken log2 fold change: 0.187

RRIRSRPPRLPRPRPRPDNVPRP
shrunken log2 fold change: 4.24

RRIRSRPPRLPRPRPRPDPCPRP
shrunken log2 fold change: 0.0809

RRIRSRPPRLPRPRPRPDPEPRP
shrunken log2 fold change: 0.183

RRIRSRPPRLPRPRPRPDPGPRP
shrunken log2 fold change: 0.246

RRIRSRPPRLPRPRPRPDQGPRP
shrunken log2 fold change: -0.196

RRIRSRPPRLPRPRPRPDSHPRP
shrunken log2 fold change: -0.36

RRIRSRPPRLPRPRPRPDSQPRP
shrunken log2 fold change: -0.267

RRIRSRPPRLPRPRPRPDTIPRP
shrunken log2 fold change: -1.3

RRIRSRPPRLPRPRPRPDVPPRP
shrunken log2 fold change: -0.0936

RRIRSRPPRLPRPRPRPDYPPRP
shrunken log2 fold change: -0.0733

RRIRSRPPRLPRPRPRPECDPRP
shrunken log2 fold change: 0.262

RRIRSRPPRLPRPRPRPECKPRP
shrunken log2 fold change: 0.275

RRIRSRPPRLPRPRPRPEDKPRP
shrunken log2 fold change: -0.00968

RRIRSRPPRLPRPRPRPEGLPRP
shrunken log2 fold change: -0.0431

RRIRSRPPRLPRPRPRPEHMPRP
shrunken log2 fold change: -0.391

RRIRSRPPRLPRPRPRPEKKPRP
shrunken log2 fold change: 0.0751

RRIRSRPPRLPRPRPRPEKQPRP
shrunken log2 fold change: 0.1

RRIRSRPPRLPRPRPRPELDPRP
shrunken log2 fold change: 0.674

RRIRSRPPRLPRPRPRPEMQPRP
shrunken log2 fold change: 0.0419

RRIRSRPPRLPRPRPRPEPFPRP
shrunken log2 fold change: 0.621

RRIRSRPPRLPRPRPRPEQCPRP
shrunken log2 fold change: -0.00373

RRIRSRPPRLPRPRPRPESIPRP
shrunken log2 fold change: -0.397

RRIRSRPPRLPRPRPRPESVPRP
shrunken log2 fold change: 0.17

RRIRSRPPRLPRPRPRPETHPRP
shrunken log2 fold change: 0.0531

RRIRSRPPRLPRPRPRPETSPRP
shrunken log2 fold change: 0.358

RRIRSRPPRLPRPRPRPEWFPRP
shrunken log2 fold change: -0.287

RRIRSRPPRLPRPRPRPEWNPRP
shrunken log2 fold change: 0.119

RRIRSRPPRLPRPRPRPEYSPRP
shrunken log2 fold change: -0.322

RRIRSRPPRLPRPRPRPEYYPRP
shrunken log2 fold change: 0.0495

RRIRSRPPRLPRPRPRPFAEPRP
shrunken log2 fold change: 0.256

RRIRSRPPRLPRPRPRPFAPPRP
shrunken log2 fold change: 0.314

RRIRSRPPRLPRPRPRPFDVPRP
shrunken log2 fold change: -0.151

RRIRSRPPRLPRPRPRPFELPRP
shrunken log2 fold change: 0.0413

RRIRSRPPRLPRPRPRPFGAPRP
shrunken log2 fold change: 0.162

RRIRSRPPRLPRPRPRPFKFPRP
shrunken log2 fold change: -0.438

RRIRSRPPRLPRPRPRPFKVPRP
shrunken log2 fold change: -0.0212

RRIRSRPPRLPRPRPRPFKYPRP
shrunken log2 fold change: -0.418

RRIRSRPPRLPRPRPRPFLIPRP
shrunken log2 fold change: -0.383

RRIRSRPPRLPRPRPRPFLVPRP
shrunken log2 fold change: -0.361

RRIRSRPPRLPRPRPRPFMDPRP
shrunken log2 fold change: -0.519

RRIRSRPPRLPRPRPRPFMKPRP
shrunken log2 fold change: -0.205

RRIRSRPPRLPRPRPRPFMLPRP
shrunken log2 fold change: -0.411

RRIRSRPPRLPRPRPRPFNEPRP
shrunken log2 fold change: -0.19

RRIRSRPPRLPRPRPRPFNGPRP
shrunken log2 fold change: -0.0626

RRIRSRPPRLPRPRPRPFPGPRP
shrunken log2 fold change: 0.0161

RRIRSRPPRLPRPRPRPFQGPRP
shrunken log2 fold change: -0.0569

RRIRSRPPRLPRPRPRPFRYPRP
shrunken log2 fold change: -0.822

RRIRSRPPRLPRPRPRPFSTPRP
shrunken log2 fold change: -0.372

RRIRSRPPRLPRPRPRPFSYPRP
shrunken log2 fold change: -0.0241

RRIRSRPPRLPRPRPRPFTMPRP
shrunken log2 fold change: -0.811

RRIRSRPPRLPRPRPRPFVEPRP
shrunken log2 fold change: -0.123

RRIRSRPPRLPRPRPRPFVIPRP
shrunken log2 fold change: -0.206

RRIRSRPPRLPRPRPRPFWMPRP
shrunken log2 fold change: -0.293

RRIRSRPPRLPRPRPRPFYVPRP
shrunken log2 fold change: -0.546

RRIRSRPPRLPRPRPRPGAGPRP
shrunken log2 fold change: 0.445

RRIRSRPPRLPRPRPRPGAPPRP
shrunken log2 fold change: 0.613

RRIRSRPPRLPRPRPRPGAVPRP
shrunken log2 fold change: 0.324

RRIRSRPPRLPRPRPRPGCPPRP
shrunken log2 fold change: 0.18

RRIRSRPPRLPRPRPRPGDAPRP
shrunken log2 fold change: 0.298

RRIRSRPPRLPRPRPRPGDEPRP
shrunken log2 fold change: 0.0674

RRIRSRPPRLPRPRPRPGDKPRP
shrunken log2 fold change: 0.0832

RRIRSRPPRLPRPRPRPGEWPRP
shrunken log2 fold change: -0.0156

RRIRSRPPRLPRPRPRPGGLPRP
shrunken log2 fold change: 0.177

RRIRSRPPRLPRPRPRPGGPPRP
shrunken log2 fold change: 0.415

RRIRSRPPRLPRPRPRPGHDPRP
shrunken log2 fold change: -0.0796

RRIRSRPPRLPRPRPRPGHMPRP
shrunken log2 fold change: 0.0805

RRIRSRPPRLPRPRPRPGHNPRP
shrunken log2 fold change: -0.433

RRIRSRPPRLPRPRPRPGILPRP
shrunken log2 fold change: -0.0441

RRIRSRPPRLPRPRPRPGKSPRP
shrunken log2 fold change: -0.0274

RRIRSRPPRLPRPRPRPGMDPRP
shrunken log2 fold change: 0.0734

RRIRSRPPRLPRPRPRPGMHPRP
shrunken log2 fold change: -0.0823

RRIRSRPPRLPRPRPRPGMKPRP
shrunken log2 fold change: -0.0636

RRIRSRPPRLPRPRPRPGMMPRP
shrunken log2 fold change: 0.227

RRIRSRPPRLPRPRPRPGMRPRP
shrunken log2 fold change: 0.789

RRIRSRPPRLPRPRPRPGPQPRP
shrunken log2 fold change: 0.885

RRIRSRPPRLPRPRPRPGSDPRP
shrunken log2 fold change: 0.0314

RRIRSRPPRLPRPRPRPGTQPRP
shrunken log2 fold change: 0.00256

RRIRSRPPRLPRPRPRPGWRPRP
shrunken log2 fold change: 0.923

RRIRSRPPRLPRPRPRPGYDPRP
shrunken log2 fold change: -0.125

RRIRSRPPRLPRPRPRPHAGPRP
shrunken log2 fold change: 0.428

RRIRSRPPRLPRPRPRPHCPPRP
shrunken log2 fold change: -0.0154

RRIRSRPPRLPRPRPRPHEAPRP
shrunken log2 fold change: 0.0366

RRIRSRPPRLPRPRPRPHFHPRP
shrunken log2 fold change: -0.428

RRIRSRPPRLPRPRPRPHFNPRP
shrunken log2 fold change: -0.419

RRIRSRPPRLPRPRPRPHFQPRP
shrunken log2 fold change: -0.275

RRIRSRPPRLPRPRPRPHGFPRP
shrunken log2 fold change: -0.0309

RRIRSRPPRLPRPRPRPHGRPRP
shrunken log2 fold change: -0.0222

RRIRSRPPRLPRPRPRPHHWPRP
shrunken log2 fold change: -0.221

RRIRSRPPRLPRPRPRPHIAPRP
shrunken log2 fold change: -0.255

RRIRSRPPRLPRPRPRPHKCPRP
shrunken log2 fold change: 0.00997

RRIRSRPPRLPRPRPRPHKSPRP
shrunken log2 fold change: -0.414

RRIRSRPPRLPRPRPRPHMKPRP
shrunken log2 fold change: 0.427
